The nanobody polyreactivity screen of Harvey et al. (2022)

Assay: yeast display, Sf9 membrane polyspecificity reagent, FACS + sequencing; frameworks hold sequencing errors
Method in brief: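 Using colony PCR, genes from sorted yeast display clones were amplified, then sequenced on MiSeq at 2 × 250 and filtered by CDR length. The clones had been stained with 10% biotinylated, detergent-solubilized Sf9 membrane reagent for 1 hour at 4 °C and sorted by FACS into low and high (top ~1%) gates on anti-HA and streptavidin fluorescence. Polyreactivity labels come from the gate of origin.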

Sequence	polyreactivity (PSR sort gate)
QDQLVESGGGLVQAGGSLRLSCAASAFIFSSNAMGWYRQAPGKEREFVAAISFRGGTTYYADSVKGRFTISRDNAKNTVYLQMNSLKPEDTAVYYCNAVRWRSGRWWWYDYWGQGTQVTVSS	low polyreactivity
QVQLVESGGGLVQAGGSLRLSCAASGRIFFIYAMGWYRQAPGKERELVAAITWRGGRTYYADSVKGRFTISRDNAKNTVYLQMNSLKPEDTAVYYCAADYRDSYLFYYWGQGTQVTVSS	high polyreactivity
QVQLVESGGGIVQAGGSLRLSSAASGRIFPYYAMGWYRQSPGKERELVAAINWRGTRTYADSVKWRFTISRDNAKYTVYFQMTSLNPEDTAVYYCAARTLYFSKYDYWGLGTQVTVSS	high polyreactivity
QVQLVESGGGLVQAGGSLRLSCAASGRTFRYNAMGWYRQAPGKERELVAAISTRGGSTYYADSVKGRFTISRDNAKNTVYLQMNSLKPEDTAVYYCAVTPRIPGHFEDYYWGQGTQVTVSS	low polyreactivity
QVQLVESGGGLVQAGGNLRLSCAASGNIFYVYAMGWYRQAPGKERELVAAITRSGGRTYYADSVKGRFTISRDNAKNTVYLQMNSLKPEETAVYYCAADRGVTRQKMDYWGQGTQVTVSS	low polyreactivity
QVQLVESGGGFVQAGGSHRLSCASSGRTFVLYTMGLYRQAPGKERELVAVGSTYYADSVKGRFTISRDNAKNTVYLQMNSLKPEDTALYYCNKPGNYLWRRSWDFYYWGQGTQVTVST	high polyreactivity
QVQLQESGGGLVQAGGSLRLSCAASGTISPLPAMGWYRQAPGKEREFVPGIDTGAITNYADSVKGRFTISRDNAKNTVYLQMNSLKPEDTAVYYCAVFPAAYDYYERYYTYWGQGTQVTVSS	low polyreactivity
QVQLVESGGGLVQAGGSLRLSCAASGFTFYRNAMGWYRQAPGKEREMVAAISWSGDSTYYADSVKGRFTISRDNAKNTVYLQMNSLNPEDTAVYYCAKERYFYYPWVTTYTSNYWGQGTQVTVSS	low polyreactivity
QVQLVESGGGLVQAGGSLRLSCAASGFTFSHYAMGWYRQAPGKERELVAAITASGGNTYYADSVKGRFTISRDNAKNTVYLQMNSLKPEDTAVYYCNAVSLKFTRKFDYWGQGTQVTVSS	high polyreactivity
QRQLVESGGGLVQAGGSLRLSCAASGIIFQGYAMGWYRQAPGKERELVAAISHHADSTYADSVKGRFTISRDNAKNPVYLQMNSLKPEDTAVYYCNADTPVRSDYWGQGTQVTVSS	low polyreactivity
QVQLVESGGGLVQAGGSLRLSCAASGYTFGKYAMGWYRQAPGKEREWVAGISSRGGSTYYADSVKGRFTISRDNAKNTVYLQMNSLKPEDTAVYYCAAVAYTGGPRKLGFNYWGQGTQVTVSS	high polyreactivity
QVQLVESRGGLVQAGGSLRLSCAASGYAMGWYRQAPGKERELVAAITSGGSTNYADSVKGRFTISRDNAKNTVYLQMNSLKPVDTAVYYCAAAYSLYGHRYDYWGQGTQVTVSS	high polyreactivity
QVHLVESGGGLVQAGGSLRLSCAASGFTIAFNAMGSYRQAPGKERELVASITGGGSTNYADSVKGRFTISRDNAKNTVYLQMNSLKPEDTAVYYCAARYFWAWERDLFLEFDYWGQGTQVTVSS	low polyreactivity
QVQLVESGGGLVQAGGSLRLSCAASGITFYVYAMGWYRPAPGKVRELVAAINYDSGSTYYADSVKGRFTISRDNAKNTVYLQMNSLKPEDTAVYYCATDGVNPFYAYDYWGQGTQVTVSS	low polyreactivity
QVHLVESGGGVVQAGGSLRLSCAASGFTFVPYAMGWYRQAPGKETETNADSVKGRFTSSRDNAKNTVYLQMNSLKPEDTAVYYCAAGGYGPYDYWGQGTQVTVSS	low polyreactivity
QVQLVESGGGLVQAGGSLRLSCAASGSTFYYYALGWYRQAPGKERELVATISWSGDSTYADSVKGRFTISRDNAKNTVYLQMNSLKPEDTAVYYCATSGDWWGFRYDYWGQGTQVTVSS	low polyreactivity
QVQLVESGGGLVQAGGSLRLSCAASGSTFSKNAMAWYRQAPGKERELVASISSSGGSTYYADSVKGRFTISRDTAKNTVYLQLNSLKPEDTAVSYCATRRGRGYYYWGQGTQVTVSS	high polyreactivity
QVQLVESGGGLVQAGGSLRLSCAASGFIFGTNTMGWYRQAPGKERELVAAITSVGSTNYADSVKGRFTISRDNAKNTVYLQMNSLKPEDTAVYYCPATLYYQYGGDYWGQGTQVTVSS	low polyreactivity
